Test results as given in article PMC9569855 (2022).

Target: SARS-CoV-2 wild type RBD (319-541aa) (SARS-CoV-2, UniProt P0DTC2 319-541)
Assay: SPR

B1: Bamlanivimab (antibody, V domains shown)
VH: QVQLVQSGAEVKKPGSSVKVSCKASGGTFSNYAISWVRQAPGQGLEWMGRIIPILGIANYAQKFQGRVTITADKSTSTAYMELSSLRSEDTAVYYCARGYYEARHYYYYYAMDVWGQGTAVTVSS
VL: not shown
Binder B1 has a koff of 0.0014 s⁻¹.
